Measurements from publication PMC11466962, “Nup358 restricts ER-mitochondria connectivity by modulating mTORC2/Akt/GSK3β signalling” (EMBO Reports, 2024).

Biological target: T1, GST-Nup358-MC2 (2012–2771 aa) (human, UniProt P49792 2012-2771)
T1 construct: also called GST-tagged Nup358-MC2; source: E. coli BL21 CodonPlus RIL (DE3), purified (Glutathione Agarose Beads)
Assay: co-IP; in vitro: 2 µM MBP protein incubated with 1.5 µM GST-Nup358-MC2 in 25 mM Tris-HCl pH 7.4, 150 mM NaCl, 5% glycerol, 0.01% Tween20, 2 h, 4 °C; MBP proteins immunoprecipitated with anti-MBP antibody on Protein G Dynabeads; western blot for Nup358-MC2
Settings: both partners purified

T1 sequence (P49792 2012-2771): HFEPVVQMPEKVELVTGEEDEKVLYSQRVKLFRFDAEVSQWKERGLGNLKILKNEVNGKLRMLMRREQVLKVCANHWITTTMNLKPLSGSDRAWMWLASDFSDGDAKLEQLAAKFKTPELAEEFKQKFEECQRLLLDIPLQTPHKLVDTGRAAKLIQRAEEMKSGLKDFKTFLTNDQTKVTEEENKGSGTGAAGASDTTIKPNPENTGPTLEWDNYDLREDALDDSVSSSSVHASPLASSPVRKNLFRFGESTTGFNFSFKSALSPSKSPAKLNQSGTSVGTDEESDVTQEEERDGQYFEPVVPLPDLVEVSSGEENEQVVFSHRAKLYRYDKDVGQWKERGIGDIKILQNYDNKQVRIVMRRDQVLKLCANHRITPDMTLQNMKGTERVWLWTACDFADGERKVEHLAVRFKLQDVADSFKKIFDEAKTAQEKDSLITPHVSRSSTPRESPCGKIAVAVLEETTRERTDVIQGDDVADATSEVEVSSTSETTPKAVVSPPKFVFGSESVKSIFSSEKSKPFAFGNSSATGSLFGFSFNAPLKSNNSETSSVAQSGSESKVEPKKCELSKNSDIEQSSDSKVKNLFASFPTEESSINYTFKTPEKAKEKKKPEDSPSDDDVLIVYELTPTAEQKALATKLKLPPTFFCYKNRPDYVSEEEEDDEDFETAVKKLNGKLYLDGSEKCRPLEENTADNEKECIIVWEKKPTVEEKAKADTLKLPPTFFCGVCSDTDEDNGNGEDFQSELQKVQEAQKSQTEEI

B1: MBP-PTPIP51 (36–470 aa) (domain or fragment, UniProt Q96TC7 36-470, looked up)
chain: KRTQRHGRSQSLPNSLDYTQTSDPGRHVMLLRAVPGGAGDASVLPSLPREGQEKVLDRLDFVLTSLVALRREVEELRSSLRGLAGEIVGEVRCHMEENQRVARRRRFPFVRERSDSTGSSSVYFTASSGATFTDAESEGGYTTANAESDNERDSDKESEDGEDEVSCETVKMGRKDSLDLEEEAASGASSALEAGGSSGLEDVLPLLQQADELHRGDEQGKREGFQLLLNNKLVYGSRQDFLWRLARAYSDMCELTEEVSEKKSYALDGKEEAEAALEKGDESADCHLWYAVLCGQLAEHESIQRRIQSGFSFKEHVDKAIALQPENPMAHFLLGRWCYQVSHLSWLEKKTATALLESPLSATVEDALQSFLKAEELQPGFSKAGRVYISKCYRELGKNSEARWWMKLALELPDVTKEDLAIQKDLEELEVILRD
notes: PTPIP51 (RMDN3), residues 36-470, cloned into pMAL-c2; source: E. coli BL21 Star (DE3), purified (Ni-NTA, Amylose resin); not shown: MBP, N-terminal, kept
binding result: binds
